Assays:
[1] = target: TmZIP C-terminally fused to TEV-GFP-His10; assay: SDS-PAGE of the IMAC-pure protein
[2] = target: TmZIP N-terminally fused to His10-GFP-TEV; assay: SDS-PAGE of the IMAC-pure protein

stoichiometry N [1]	stoichiometry N [2]	Substance
2		TmZIP C-terminally fused to TEV-GFP-His10 (natural protein)
	2	TmZIP N-terminally fused to His10-GFP-TEV (natural protein)
